Assays:
[1] = molecular target: prdx3_human PRDX3 (UniProt P30048)
[2] = molecular target: prdx3_human PRDX3 (UniProt P30048); remark: listed apart in the source

UniProt P30048, sequence (P30048 whole entry): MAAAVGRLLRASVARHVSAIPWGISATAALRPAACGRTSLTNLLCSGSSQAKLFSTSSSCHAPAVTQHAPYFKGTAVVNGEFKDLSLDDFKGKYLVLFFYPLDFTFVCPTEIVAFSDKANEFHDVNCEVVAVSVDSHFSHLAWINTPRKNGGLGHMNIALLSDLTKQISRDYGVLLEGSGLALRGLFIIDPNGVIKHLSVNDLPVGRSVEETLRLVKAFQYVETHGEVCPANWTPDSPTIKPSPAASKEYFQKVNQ

Substance	effect of a mutation on the interaction [1]	effect of a mutation on the interaction [2]
Leucine-rich repeat serine/threonine-protein kinase 2 (Homo sapiens), Q5S007 G2019S	increasing interaction	–
Leucine-rich repeat serine/threonine-protein kinase 2 (Homo sapiens), Q5S007 G2019V;I2020F	–	disrupting interaction
